Assay [1] concerns the target hRetromer (recombinant Retromer trimer) (human) (UniProt Q96QK1). The assay is described as follows: ITC; Microcal PEAQ-ITC, 25 °C; 1 mM peptide or 530 µM TBC1D13 titrated into 14 µM Retromer; single-site model; mean of triplicate titrations.
The target in a further assay is endogenous VPS26 (UniProt O75436). The assay is described as follows: GFP-based co-IP, western blot band quantification. The settings on record: HEK293T cells, transient transfection; normalised to GFP band intensity; n = 3; parent: est. 100; read off a plot.

Chain of recombinant full-length human TBC1D13 (Q9NVG8 whole entry): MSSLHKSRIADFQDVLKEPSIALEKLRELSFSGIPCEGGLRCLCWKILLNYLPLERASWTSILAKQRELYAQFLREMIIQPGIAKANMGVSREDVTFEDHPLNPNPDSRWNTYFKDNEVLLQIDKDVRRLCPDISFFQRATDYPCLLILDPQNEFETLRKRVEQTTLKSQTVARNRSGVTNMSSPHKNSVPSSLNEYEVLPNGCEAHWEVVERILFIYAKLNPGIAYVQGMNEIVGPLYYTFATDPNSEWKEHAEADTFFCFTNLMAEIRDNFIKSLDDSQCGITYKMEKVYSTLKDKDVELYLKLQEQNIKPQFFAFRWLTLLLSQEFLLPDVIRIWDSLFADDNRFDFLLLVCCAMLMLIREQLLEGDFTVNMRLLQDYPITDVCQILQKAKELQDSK

As a reminder, the Kd is the concentration at which binding is half-saturated. Consider human DENND4C peptide 1189-1206, for which, in assay [1], the Kd is 15.4 µM and the dH is -10.1 kcal/mol.

Take “VPS35-GFP WT (from UniProt Q96QK1) I218D”: the percent of parent (relative intensity (WT = 100)) with endogenous VPS26 came out at 120.

Take “recombinant full-length human TBC1D13 (from UniProt Q9NVG8 1-400) (natural protein)”: in assay [1], the Kd turned out to be 6.3 µM and the dH was -8.1 kcal/mol.

As for “GFP-VPS29 wild-type (from UniProt Q9UBQ0) V174D”, in the assay with endogenous VPS26, the percent of parent (relative intensity (WT = 100)) came to 170.

For the substance “GFP-VPS29 wild-type (from UniProt Q9UBQ0) L152E”, the percent of parent (relative intensity (WT = 100)) with endogenous VPS26 was 110.

(Values after publication PMC12311110.)
